In article PMC7409020, “Tumor-Targeting Peptides: The Functional Screen of Glioblastoma Homing Peptides to the Target Protein FABP3 (MDGI)” (Cancers, 2020):
Square brackets hold non-standard residues; d marks the D form. Ends that are not written are not given here.

Molecular target: recombinant N-terminal His6-tagged human FABP3 (human)
Assay: MST; Monolith NT.115; 20 nM NT-650-NHS-labelled FABP3, unlabelled peptides 500 µM to 0.0153 µM in two-fold dilutions; 25 °C; PBS with 0.05% Tween 20, pH 7.4; 40% MST power, 60% LED power; 1:1 fit; triplicates

Chain of recombinant N-terminal His6-tagged human FABP3 (human) (P05413 2-133): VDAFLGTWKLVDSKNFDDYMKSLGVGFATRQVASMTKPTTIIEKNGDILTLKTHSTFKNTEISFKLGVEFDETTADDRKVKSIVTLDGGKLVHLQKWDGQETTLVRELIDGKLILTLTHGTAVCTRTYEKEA

| Binder | Kd [nM] | fold lower binding affinity compared to A-CooP [fold] |
| --- | --- | --- |
| KACGLSGLGVA-NH2 [KA-CooP] | 630 |  |
| ACGLSGLGVA-NH2 [A-CooP] | 2180 |  |
| ACGLSGLAVA-NH2 [A-[Ala^7]CooP] | 133000 |  |
| [dA][dV]G[dL]G[dS][dL]G[dC][dA]-NH2 (N-terminus assumed; SMILES CC(C)C[C@@H](NC(=O)CNC(=O)[C@H](NC(=O)[C@@H](C)N)C(C)C)C(=O)NCC(=O)N[C@H](CO)C(=O)N[C@H](CC(C)C)C(=O)NCC(=O)N[C@H](CS)C(=O)N[C@H](C)C(N)=O) [RI-A-CooP] |  | 10 |
| ACGLSGLGVAK-NH2 [A-CooP-K] | 70 |  |
